Tests used:
EV71-C 3Dpol WT [1] = biological target: T1, EV71-C 3Dpol WT (Enterovirus 71 strain …, UniProt M4QLY4 1732-2193); assay: fluorescence polarization; 5 mM Mg2+; FP: 50 mM potassium glutamate pH 7.5, 50 mM arginine, 5 mM DTT, 5 mM MgCl2, 30 mM NaCl, 5% glycerol, 25 nM RNA, room temperature, at least 60 min. EC assembly:
EV71-C 3Dpol WT [2] = biological target: T1, EV71-C 3Dpol WT; assay: crystal structure (1.8 A); five Mg2+; elongation complex; FP: 50 mM potassium glutamate pH 7.5, 50 mM arginine, 5 mM DTT, 5 mM MgCl2, 30 mM NaCl, 5% glycerol, 25 nM RNA, room temperature, at least 60 min. EC assembly:
EV71-C 3Dpol WT [3] = biological target: T1, EV71-C 3Dpol WT; assay: crystal structure; ddCTP-soaked elongation complex; FP: 50 mM potassium glutamate pH 7.5, 50 mM arginine, 5 mM DTT, 5 mM MgCl2, 30 mM NaCl, 5% glycerol, 25 nM RNA, room temperature, at least 60 min. EC assembly:

B1: T31/P8F (structured_RNA)
RNA 1: GGGAGAUGAAAGUCUCCAGGUCUCUCGGAAA
RNA 2: UGUUCCGA
Kd (EV71-C 3Dpol WT [1]): 180 nM

B2: T31/P12 (T31/P8 after GAGA incorporation) (structured_RNA)
RNA 1: GGGAGAUGAAAGUCUCCAGGUCUCUCGGAAA
RNA 2: UGUUCCGAGAGA
binding result (EV71-C 3Dpol WT [2]): binds

B3: T31/P12 + ddCMP (structured_RNA)
RNA 1: GGGAGAUGAAAGUCUCCAGGUCUCUCGGAAA
RNA 2: UGUUCCGAGAGAC
modifications: 3'-terminal 2',3'-dideoxy-C on product strand
binding result (EV71-C 3Dpol WT [3]): binds

— publication PMC7026628
